The values below come from paper PMC7153837.

In this test the target is B10v5xhu225L, c-METxEGFR bispecific SEED antibody reconstituted by Npu DnaE protein trans-splicing. Nature of the test: BLI.

One may read the Kd as the constant that tells how readily two partners part at equilibrium. With “EGFR (EGF receptor), recombinant antigen (from UniProt P00533 25-1210)”, the Kd is 220 nM.
